# From article PMC9989938 (Immunity, 2023)
# B1: 230AS-73 scFv (scFv, V domains shown)
# VH: QVQLQQWGAGLLKPSETLSLTCAVSGASFSGYSWTWIRQSPGKGLEWIGEIDYRGSTNYNPSLKSRVTMSVDTPKNQFSLNLTSLTAADTAIYYCAKGYGGVTLVRGAKINWFDPWGQGTLVTVSS
# VL: EIVLTQSPGTLSLSPGERATLSCRASQSVTSRYLAWYQQKPGQAPRLLIFGASSRATGIPDRFSGSGSGTDFTLTISRLEPEDFAVYFCQQYAKSPWTFGQGTKVEIK
# B2: 230AL-37 IgG (antibody, V domains shown)
# VH: QVQLVESGGGVVQPGGSLRLSCTASGLIFNKYGIYWVRQAPGKGLEWVAFIRYDGTNQFYADSVKGRFTISRDNSKNKVYLQMNSLRAEDTALYYCAKDRGSIIVFDHWGQGTLVTVSS
# VL: EIVLTQSPATLSLSPGERVTLSCRASQAVGIYLAWYQQKPGQAPRLLIYHVSKRDTGVPDRFSGSGSGTDFTLTISSLEPEDFAVYYCQQHRNWPPITFGQGTRLEIK
# B3: 230AL-37 scFv (scFv, V domains shown)
# VH: QVQLVESGGGVVQPGGSLRLSCTASGLIFNKYGIYWVRQAPGKGLEWVAFIRYDGTNQFYADSVKGRFTISRDNSKNKVYLQMNSLRAEDTALYYCAKDRGSIIVFDHWGQGTLVTVSS
# VL: EIVLTQSPATLSLSPGERVTLSCRASQAVGIYLAWYQQKPGQAPRLLIYHVSKRDTGVPDRFSGSGSGTDFTLTISSLEPEDFAVYYCQQHRNWPPITFGQGTRLEIK
# What was measured:
# [1] = target: Pfs230D1D2 (first two 6-Cys domains of Pfs230), 6xHis (Plasmodium falciparum 3D7, UniProt P68874); assay: crystal structure
# Biotinylated Pfs230D1 = Biotinylated Pfs230D1 (Plasmodium falciparum 3D7, UniProt P68874, biotin (site not stated)); assay: BLI
# [2] = target: Pfs230D1 D714N variant, 6xHis, from Expi293 cells (P. falciparum, UniProt P68874); assay: BLI
# [3] = target: Pfs230D1 G605R variant, 6xHis, from Expi293 cells (P. falciparum, UniProt P68874, G605R); assay: BLI
# [4] = target: Pfs230D1 G605S variant, 6xHis, from Expi293 cells (P. falciparum, UniProt P68874, G605S); assay: BLI
# [5] = target: Pfs230 domain 1 (Pfs230D1), wild-type, 6xHis, from Expi293 cells (P. falciparum, UniProt P68874); assay: BLI
Binder,binding result [1],binding result (Biotinylated Pfs230D1),Kd [2] [nM],koff [2] [s⁻¹],kon [2] [M⁻¹ s⁻¹],Kd [3] [nM],koff [3] [s⁻¹],kon [3] [M⁻¹ s⁻¹],Kd [4] [nM],koff [4] [s⁻¹],kon [4] [M⁻¹ s⁻¹],Kd [5] [nM],koff [5] [s⁻¹],kon [5] [M⁻¹ s⁻¹]
B1,binds,binds,–,–,–,–,–,–,–,–,–,–,–,–
B2,–,–,15,0.00422,291000,5.01,0.000426,85100,0.65,0.000147,214000,0.34,0.000181,538000
B3,binds,–,–,–,–,–,–,–,–,–,–,–,–,–
